The term Kd denotes a measure of binding affinity in units of concentration.

The test system of series [1] is HIV-1 BaL. Nature of the series: Viral synergy study, HIV-1 BaL replication in PM-1 cells (gp120 ELISA). It is filed as cell-based. Conditions: 12p1 16-31 μM. As to the method:
The curves are also shown for the dose response expected if the effects were simply additive.
Viral replication was determined by gp120 ELISA after a seven day incubation.
Dilutions and cells were in RPMI supplemented with 10% fetal calf serum, pen, strep and glutamine. Cells were incubated for 7 days and viral replication determined by gp120 ELISA. Each condition was performed in sextuplet and the mean used to calculate IC50 values. Analysis of combined effects was also carried out using the median effect principle developed by Chou and Talalay^39,40, and using the computer program CalcuSyn (BioSoft).
Background: ELISA stands for enzyme-linked immunosorbent assay.

A further series has as its target HIV-1YU2 gp120 (Human immunodeficiency virus type 1 group M subtype B, UniProt P35961). To be noted: at 300 nM, about 250 RUs gp120 immobilized. How it is done:
Approximately 250 RUs of either YU2 gp120 or the non-specific control antibody 2B6R were immobilized to a CM5 dextran chip by amine coupling. […] Signals from the reference 2B6R flow cell were used to correct for non-specific interactions and bulk effects (FIGS. 4A, B).
All surface plasmon resonance studies were performed on a Biacore 3000 (Biacore Inc., Uppsala, Sweden). CM5 dextran chip was derivatized by amine coupling with 250 RUs of YU2 gp120 or 2B6R (anti-IL5 receptor βchain) IgG as a control surface. […] Surfaces were regenerated with multiple short pulses of 10 mM glycine HCl, pH 1.7.

The test system of series [2] is gp120s from a variety of strains of HIV-1 of diverse clades and tropisms. Nature of the series: ELISA binding to gp120 of a variety of clades and tropisms. Conditions: 50 nM, 100 ng gp120. The source says: Bars represent triplicate determination after the subtraction of non-specific binding to BSA. Error bars indicate one standard deviation.
We therefore tested the ability of the chimera to bind to the gp120s from a variety of strains of HIV-1 of diverse clades and tropisms.

For another series, the target named is YU2 gp120 / mAb 2G12 (Human immunodeficiency virus type 1 group M subtype B, UniProt P35961). Conditions: ELISA, 50 μg/ml 2G12. The source says: Monomeric HIV-1YU2 gp120 was adsorbed onto ELISA plates overnight prior to blocking with 1% BSA.
This antibody recognizes the conformationally-flexible, CD4-unliganded form of gp120^53.

The target of series [3] is T1, YU2 gp120 / mAb 17b (Human immunodeficiency virus type 1 group M subtype B, UniProt P35961). To be noted: ELISA, 2 μg/ml 17b.
The target of another series is T2, YU2 gp120 / mAb F105 (Human immunodeficiency virus type 1 group M subtype B, UniProt P35961).
T2 construct: made in house; host or cells: gp120: Drosophila S2 cells
To be noted: from literature; cited from earlier work.

Another series deals with SHIV89.6P. Conditions: cited from earlier work.
Series [4] relates to SIV/HIV-1 virus SHIV89.6P. To be noted: gel formulations applied rectally, male macaques; cited from earlier work.
For series [5], the system named is HIV-1 BaL. To be noted: recombinant CVN; cited from earlier work.
In a further series the target is YU2 gp120 (Human immunodeficiency virus type 1 group M subtype B, UniProt P35961). Conditions: read-out: Equilibrium dissociation constant KD for binding to YU2; cited from earlier work.
Series [6] addresses gp120 of HIV-1 JRFL and HIV-1 89.6. To be noted: cited from earlier work.
The target of series [7] is T1, YU2 gp120 / mAb 17b. Conditions: from literature; cited from earlier work.

As for RINNIPWSEAMM [12p1], in the series on HIV-1 BaL [1], the “Inhibitory effect on viral replication alone” value is on record as “only small inhibitory effect”.

B1: CVN: 11 kDa protein originally isolated from the cyanobacterium Nostoc ellipsosporum, binds high mannose oligosaccharides of gp120 (protein)
chain: LGKFSQTCYNSAIQGSVLTSTCERTNGGYNTSSIDLNSVIENVDGSLKWQPSNFIETCRNTQLAGSSELAAECKTRAQQFVSTKINLDDHIANIDGTLKYEHHHHHH
B1: the “Biosensor signal on immobilized YU2 gp120” value in the series with HIV-1YU2 gp120 is reported as 95 RU. For the same molecule, the “Binding to gp120s of diverse strains in ELISA” value in series [2] is reported as “behaved equivalently with all strains tested”. Further, the “Competition of gp120 binding to 2G12 antibody” value with YU2 gp120 / mAb 2G12 was “show the expected competition”. Besides, the “Effect on interaction between 17b and gp120” value with YU2 gp120 / mAb 17b [3] is recorded as “neither CVN nor L5-S12p1 had any effect”. In addition, in the series with YU2 gp120 / mAb F105, the “Effect on F105 binding to gp120” value was “minimal effect”. The “Clinically adverse effects in in vivo assays” value in the series on SHIV89.6P (macaques, gel) is given as “no clinically adverse effects”. In addition, in the series on SHIV89.6P (vaginal gel, SHIV89.6P challenge, controls 8 of 8 infected), the “CVN treated macaques not infected” value is 15 of 18. In series [4], the “Protection against rectal challenge” value is recorded as “protected against challenge”. In the series on HIV-1 BaL [5], the “Cytotoxic effects in ectocervical explants” value is “no cytotoxic effects” and the “Infection of human ectocervical explants” value is listed as “blocked HIV-1 BaL infection”. Besides, the equilibrium dissociation constant (Kd) with YU2 gp120 was 11 nM. The “Affinity (KD) of interaction with gp120” value in series [6] is “in the nM KD range”. Further, the “Effect on 17b-gp120 interaction” value with YU2 gp120 / mAb 17b [7] was “cannot inhibit this interaction”.

These data come from patent publication US8093046B2, “CVN-12p1: a recombinant allosteric lectin antagonist of HIV-1 envelope gp120 interactions” (Philadelphia Health and Education Corporation d/b/c Drexel …, priority 2006, dated 2012).
